Measurements as given in the DeepSol protein solubility set.

Assay: soluble on expression in E. coli; label from the status in PepcDB or PDB records

Soluble on expression in E. coli, not soluble:
SEKANALFETIFMENIMASPIAQTYMGIKQDYDKWDEIGDEADALELARTQKQLAEINQLDASKLDPQTRLSLALLTQNLNNDIKDYQWRYHTYPVNQMRGGHSMIASFLINQHQITDVSDAKAYISRLNGVPKRLTQLQKALEVRAEKGIIAPKFVFGYVISDSQNILKGAPFDKNEDSALLADFRKKVKALSIPETEKAPLIAEAEKALTSQVAPAYKALISYIKTLEAKADTRDGVWKLPDGDAFYNNALARTTTTDMTADEIHQLGLAEVERIHNEMRAIMKKVHFNGTLQAFFAFMRNNPQFYYPNTPEGKAAYLADATQLIDNMHSRLDEVFKVKPKAAMIVKQVESFREKSAGKAFYEQPAPDGSRPGSYYANLYDMKAMPKYQMEALAYHEGIPGHHMQIAISQELKDIPKFRKFGGYTAYIEGWGLYSESFPKEMGLYADPYSDFGRLAMELWRACRLVVDTGIHAKKWTREQGIAYYVDNTPNAKSDAVKMVERHIVMPSQATAYKVGMIKLLELRHKAEKQLGDKFDIRDFHTLILANGALPLDVLEEHVNQWIASVNK
MSLERPLCISYIRFSKATQAEGSSLERQLQLSRTYAEEHGLVLDDKHSYQDLGKSAFTSEHVKEGEFGVFLEFVKQGRVPKGSVLLVESLDRLSRESVLTAFKQFQEILDAGIKIVTLSDKMEYTKEGFEANIGNIFISLGIMARANEESLRKSERICAAWRLKRKNLHNIKLTANCPGWLELTPDKKDFILKEDRVEIVKQIFELSLSGLGVKAISTILNKQKIEPFRSKIGWYQTTVRKILSNSAVIGEFQPHVFGSKHSKPVPDGELIKDYFPPIIDTDTFYAVQAKLKNGAHRPGRTAKVENLFSGYTRCGYCGSRMDVVARHNVGGEVRYLVCDSARRGVKCSYISMKCNEIEKAFFEYCREIDIRYVLRAEQQADQNRLNELRKSLTARNGKLMKVQKQIDMLNVFLDDITERAELEHYHEQIKKKLEEKTNLSEEIEKLSKGICIAEYDNNNIDVRVQNLLTLDKAQNKSVKEDDKIMFRIRLRDELRQIISQILVYPRGSVFSDEQIEQKERDYEIKIKSASDSEKHILKHEKTIDLDGMRQSQQNTKDDRFFVVRFKNGNYRTIKYDKKQQAYRVTSELINDKLNWWMGNKEMAPIFREEEELHPFETEFELDSNEGHHHHHH
MITCLIVDDELFAREELADSLSQEADIEIIGQCSNAIEALQTITKEKPQLVFLDIQMPRISGMELIAMLDPDTLPKIVFVTAFDEFAVKAFDNHAFDYLLKPIDADRLSKTLKRVRKDLTPQAVNLIAPRSLEHLPCYSGSKLKVIPIQDVEYVFSDLSGIHVACTKGKVHTQLTLKVLEEKTPLVHCHRQYLISPKAIAEIELLDTGAEVTTLLGDKVPVSRRYLKSLKQLFGFQ
MPHLALLISKGAIMDRIIQSPGKYIQGADVINRLGEYLKPLAERWLVVGDKFVLGFAQSTVEKSFKDAGLVVEIAPFGGECSQNEIDRLRGIAETAQCGAILGIGGGKTLDTAKALAHFMGVPVAIAPTIASTDAPCSALSVIYTDEGEFDRYLLLPNNPNMVIVDTKIVAGAPARLLAAGIGDALATWFEARACSRSGATTMAGGKCTQAALALAELCYNTLLEEGEKAMLAAEQHVVTPALERVIEANTYLSGVGFESGGLAAAHAVHNGLTAIPDAHHYYHGEKVAFGTLTQLVLENAPVEEIETVAALSHAVGLPITLAQLDIKEDVPAKMRIVAEAACAEGETIHNMPGGATPDQVYAALLVADQYGQRFLQEWE
MSLYRIDFNKLRFLICDDNPHMRRILRTLLHSFGTREVYEAEDGATALEMYSHYSPDILITDWEMPIFDGLELAQMIRQPEAKGNPYAPIIMLTAHSEKRRVTLARDAGVTEFLAKPISSKGLYQRILNVVASPREGHHHHHH
MGSDKIHHHHHHMKTRIVQKQFKRKETKYIVDKKTFELLEKELRQYMMADEFATSTITNIYFDNEDFDMIQDSLAKKNGREKIRMRVYDAIPSESSQAFLEIKKKENKIGYKYRLTSNPVSVANYIENGVIDSTIKDDKVNSELEMLRERYGTIKPKMYIYYDRVSYKGIEDKKVRLTIDKNLLYRDYDVDAMEGKFGKNLLDPTKVIMEVKVPEERPDWLVALLEKYQIEKQSFSKYGNAYKLAHNITGEEVSQHAVV
HTERVGWLSGRIAEEMGMSEVFVTEIQFAAPLHDIGKIGIPDRILLKPGILTPEEFEIMKQHTTIGFRILSRSNSPILQLGAEIALTHHERWDGSGYPRGLKEREIPISGLIVAVADSFDA
MLLSPEQFSRLSEYAAYSRRKLKDMLSDFQQDGKFYSYLSVDGQTINIDGFRAFLIDYFGADLPSDLVDQLFLSFSKPPIKERRTSLFEDAISTVRAKFSESLSGRMAGLNIAGGSGQQTDRSQSSEPQALVCIPEDDVMGPRVANNDSQEPRIPLKPLICTLSLLEADTPENKLDVVFHVYDSDGNGFLDKSEIDGIIEQMMNVARYQQWDTIELEQVIRQMMVDIDYDNDGIVSFDEWRRGGLTNIPLLVLLGFDTEMKEDGSHVWRLRHFTKPTYCNACCSILVGWGGKQGLSCSLCKYTVHERCVRSAATNCIRTYSSRQQDKLYHHWQDANATAKCVKCKATVGVFQGKGCRWCHNYVHHRCMSALAQECDLGALVHHILPPTHIFPAFLERKTSTSLKNHNFSSHSASLLQAVSPSNDCRPLLVLVNPKSGGKQGVKILQKFEYLLNPRQVYDLSKTGPEPGLQLFSTLKNCNILVCGGDGTIGWVLESMDKMTFPHGRPPVAVLPLGTGNDLARCLRWGGGYENENLHKILEQIEKSSLIDMDRWQIKIEITENKSARRASEKGDTPPYSIINNYFSIGVDASIAHRFHVMREKFPEKFNSRMRNKLWYFELGTSETLSSSCKNLHEQIDILCDGESIDLGQDASLEGIALLNIPSIYGGSNLWGRSRKSKGRMPGLFPMKNAEKMQLQTRVQDIGDGLIELVGLESAMQMGQIKAGVRGARRLSQCSTVVIQTHKSFPMQIDGEPWMQPPCIIQITHKNQAKMLVGEFRHILELSINFFLFTAAAPRKRSSWMLLKRQSTNDDN

Soluble on expression in E. coli, soluble:
MKKLAIAGALLLLAGCAEVENYNNVVKTPAPDWLAGYWQTKGPQRALVSPEAIGSLIVTKEGDTLDCRQWQRVIAVPGKLTLMSDDLTNVTVKRELYEVERDGNTIEYDGMTMERVDRPTAECAAALDKAPLPTPLPLEHHHHHH
SSAAQPGVAFSVDNTIKRPNPAPGTRKKSSNAEVIKELNKCREENSMRLDLSKRSIHILPSSIKELTQLTELYLYSNKLQSLPAEVGCLVNLMTLALSENSLTSLPDSLDNLKKLRMLDLRHNKLREIPSVVYRLDSLTTLYLRFNRITTVEKDIKNLSKLSMLSIRENKIKQLPAEIGELCNLITLDVAHNQLEHLPKEIGNCTQITNLDLQHNELLDLPDTIGN
MEEKQILCVGLVVLDVISLVDKYPKEDSEIRCLSQRWQRGGNASNSCTVLSLLGAPCAFMGSMAPGHVADFLVADFRRRGVDVSQVAWQSKGDTPSSCCIINNSNGNRTIVLHDTSLPDVSATDFEKVDLTQFKWIHIEGRNASEQVKMLQRIDAHNTRQPPEQKIRVSVEVEKPREELFQLFGYGDVVFVSKDVAKHLGFQSAEEALRGLYGRVRKGAVLVCAWAEEGADALGPDGKLLHSDAFPPPRVVDTLGAGDTFNASVIFSLSQGRSVQEALRFGCQVAGKKCGLQGFDGIV
SNAGMKAADFTYVTVHGDNSRMSRLKAQYTMLFFYDPDCSNCRKFEKLFAEIPAFVEMVENGTLRVLAIYPDENREEWATKAVYMPQGWIVGWNKAGDIRTRQLYDIRATPTIYLLDGRKRVILKDTSMEQLIDYLATQAGK
STQACPQPKTLDEFTIIQNLQPQYQFRDYFIATCKQGYQLIEGNQVLHSFTAVCQDDGTWHRAMPRCKIKDCGQPRNLPNGDFRYTTTMGVNTYKARIQYYCHEPYYKMQTRAGSRESEQGVYTCTAQGIWKNEQKGEKIPRCLPVCGKPVNPVEQRQR
MKEVARVRNLNRIIMGKYEIEPWYFSPYPIELTDEDFIYIDDFTLQYFGSKKQYERYRKKCTLRHPPGNEIYRDDYVSFFEIDGRKQRTWCRNLCLLSKLFLDHKTLYYDVDPFLFYCMTRRDELGHHLVGYFSKEKESADGYNVASILTLPQYQRMGYGKLLIEFSYELSKKENKVGSPEKPLSDLGLLSYRAYWSDTLITLLVEHQKEITIDEISSMTSMTTTDILHTAKTLNILRYYKGQHIIFLNEDILDRYNRLKAKKRRTIDPNRLIWKPPV
MAAYSYRPGPGAGPGPAAGAALPDQSFLWNVFQRVDKDRSGVISDTELQQALSNGTWTPFNPVTVRSIISMFDRENKAGVNFSEFTGVWKYITDWQNVFRTYDRDNSGMIDKNELKQALSGFGYRLSDQFHDILIRKFDRQGRGQIAFDDFIQGCIVLQRLTDIFRRYDTDQDGWIQVSYEQYLSMVFSIV
MGHHHHHHSHMELKQSLSTHLEAEKPLRRYGAVEETAWKTERLGRNQLDIISMAETTMMPEEIELEMAKIQRLREVLVRRESELRFMMDDIQLCKDIMDLKQELQNLVAIPEKEKTKLQKQREDELIQKIHKLVQKRDFLVDDAEVERLREQEEDKEMADFLRIKLKPLDKVTKSPASSRAEKKAEPPPSKPTVAKTGLALIKDCCGATQCNIM
MIPAEIAKTAFKSLLPVLERGVVAADRAFSGYIQPRRLRGKLLLQPYVGWGTPREVELTGRVLLPRALAPARKGDPRWRNFHNIVRRLFSREVGGVRVAGTLSDQTVSAVSDSDGYFTLHFTFPRPIAAGWHEVRLQMEDRQEDAARARVQVVGKARFGIISDLDDTVIQSDVTSLPRMLMTSLTGNARTRSPFPGVGALYRALTREGEARNPIFYVSSSPWNFFDLLWQFLDYRRIPLGPLFLRNWGMDLLGGHGGYKHGVIERIFHRYPNLNFVLVGDSGEKDPEIYAEVVRRFPGRVLAVYIRDVTGAERDEGVLRLREEIRKAGADLVLASDSLSAAGHALALGLITPGEYRSVLTSVARTYETLEHHHHHH
MILGIDIGGANTKITELHENGEFKVHHLYFPMWKNNDKLAEVLKTYSNDVSHVALVTTAELADSYETKKEGVDNILNAAESAFGSNISVFDSNGNFISLESAKTNNMKVSASNWCGTAKWVSKNIEENCILVDMGSTTTDIIPIVEGKVVAEKTDLERLMNHELLYVGTLRTPISHLGNTISFKGVDTNVSSEYFAITADISVVLEKVTTEEYTCDTPDGKGTDKRSSLVRISKVLCSDLDQISEIDAENIAKNYYELWKELILENVENVAEKYGSKKVVITGLGENILKDALADFEVISVAERYGKDVSLATPSFAVAELLKNELLEHHHHHH
MVLFSEDHIQETRRRGRIEVICGSMFSGKTEELIRRMKRAKFARQRVEIFKPAIDTRYSEEDVVSHDSHSIASTPIDSSASILLFTSEIDVVGIDEAQFFDDGLIDVCRQLANNGIRVIIAGLDMDFKGNPFGPMPQLCAIADEVSKVHAICVKCGDLASFSHRTVKNDKQVLLGETAEYEPLCRECYLRARGEDGQKILEHHHHHH
MFLPKFNPIRSFSPILRAKTLLRYQNRMYLSTEIRKAIEDAIESAPVVLFMKGTPEFPKCGFSRATIGLLGNQGVDPAKFAAYNVLEDPELREGIKEFSEWPTIPQLYVNKEFIGGCDVITSMARSGELADLLEEAQALVPEEEEETKDR
